The supplement of paper PMC7125110
± gives the standard error. Variants at the floor of the assay were thinned out.

B1: glmS ribozyme (parent)
chain: AUAAAAGCGCCAGAACUACAGAAAUGUAGUUGACGAGGAGGAGGUUUAUCGAAUUUUCGGCGGAUGCCUCCAAA

How the values were obtained:
Conditions in all cases: with glucosamine-6-phosphate
glucosamine-6-phosphate [1] = variants of: B1; test: self-cleavage kobs at 40 uM GlcN6P; higher = faster cleavage; RNA array
How it was run: (§1)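 Over ~14 h at 37 °C, tiles were imaged as glucosamine-6-phosphate (40 μM to 10 mM) in HEPES/KCl/Mg(OAc)2 buffer flowed across sequenced MiSeq chips. The chips carried barcoded ribozyme variants transcribed in situ by E. coli RNA polymerase and tracked with a hybridised Cy3 probe. After normalisation to baseline and to non-cleaving reference variants, one- or two-exponential decay fits of per-tile medians gave kobs. kcat and KM followed from weighted Michaelis–Menten fits across concentrations.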

glucosamine-6-phosphate [2] = variants of: B1; test: self-cleavage kobs at 160 uM GlcN6P; higher = faster cleavage; RNA array
How it was run: as §1

glucosamine-6-phosphate [3] = variants of: B1; test: self-cleavage kobs at 2500 uM GlcN6P; higher = faster cleavage; RNA array
How it was run: as §1

glucosamine-6-phosphate [4] = variants of: B1; test: self-cleavage kobs at 10000 uM GlcN6P; higher = faster cleavage; RNA array
How it was run: as §1

glucosamine-6-phosphate [5] = variants of: B1; test: self-cleavage kobs at 640 uM GlcN6P; higher = faster cleavage; RNA array
How it was run: as §1

Variant | self-cleavage kobs at 40 uM GlcN6P (glucosamine-6-phosphate [1]) | self-cleavage kobs at 160 uM GlcN6P (glucosamine-6-phosphate [2]) | self-cleavage kobs at 2500 uM GlcN6P (glucosamine-6-phosphate [3]) | self-cleavage kobs at 10000 uM GlcN6P (glucosamine-6-phosphate [4]) | self-cleavage kobs at 640 uM GlcN6P (glucosamine-6-phosphate [5])
C11A U30C | < 1e-05 s⁻¹ | < 1e-05 s⁻¹ | 4.93e-05 ± 1.8e-05 s⁻¹ | – | –
A33U C50G C61A | 0.000105 ± 2e-05 s⁻¹ | – | – | 0.000139 ± 2.7e-05 s⁻¹ | –
C58A C61U G66U | < 1e-05 s⁻¹ | – | – | – | –
C11G A39G U45C G60A G66U | < 1e-05 s⁻¹ | – | – | – | –
G44A G59A | < 1e-05 s⁻¹ | < 1e-05 s⁻¹ | – | < 1e-05 s⁻¹ | < 1e-05 s⁻¹
C8A C11U U46C A53U | < 1e-05 s⁻¹ | – | – | – | –
C34A A64G | < 1e-05 s⁻¹ | < 1e-05 s⁻¹ | < 1e-05 s⁻¹ | – | –
G9A U31G C68G | < 1e-05 s⁻¹ | – | – | – | < 1e-05 s⁻¹
G7C C58U | < 1e-05 s⁻¹ | – | < 1e-05 s⁻¹ | < 1e-05 s⁻¹ | –
A33C U47C G59A | < 1e-05 s⁻¹ | – | – | – | –
G60U G62A | < 1e-05 s⁻¹ | < 1e-05 s⁻¹ | – | – | < 1e-05 s⁻¹
G7U C16G A36C A42C A52G | < 1e-05 s⁻¹ | – | – | – | –
G9A G62A | < 1e-05 s⁻¹ | < 1e-05 s⁻¹ | – | – | < 1e-05 s⁻¹
C11A C50G | 5.74e-05 ± 1.4e-05 s⁻¹ | 0.000276 ± 7.2e-05 s⁻¹ | 9.24e-05 ± 1.4e-05 s⁻¹ | 8.61e-05 ± 1.6e-05 s⁻¹ | 0.000195 ± 4e-05 s⁻¹
A15G C34U | < 1e-05 s⁻¹ | < 1e-05 s⁻¹ | < 1e-05 s⁻¹ | < 1e-05 s⁻¹ | < 1e-05 s⁻¹
U45A U55G | 0.00178 ± 0.00026 s⁻¹ | 0.00389 ± 0.0012 s⁻¹ | 0.00894 ± 0.0023 s⁻¹ | 0.0415 ± 0.013 s⁻¹ | 0.00532 ± 0.0012 s⁻¹
C8A U30G U31C | < 1e-05 s⁻¹ | – | < 1e-05 s⁻¹ | < 1e-05 s⁻¹ | –
A6G G13U G38U G40U | < 1e-05 s⁻¹ | – | – | < 1e-05 s⁻¹ | –
A6C A52G A53G | < 1e-05 s⁻¹ | – | – | – | –
G41C G60A | < 1e-05 s⁻¹ | – | – | < 1e-05 s⁻¹ | < 1e-05 s⁻¹
C16G U49C | < 1e-05 s⁻¹ | < 1e-05 s⁻¹ | < 1e-05 s⁻¹ | < 1e-05 s⁻¹ | –
G38U G40C G60A | < 1e-05 s⁻¹ | – | – | – | –
C34G A53C | < 1e-05 s⁻¹ | < 1e-05 s⁻¹ | < 1e-05 s⁻¹ | < 1e-05 s⁻¹ | < 1e-05 s⁻¹
U30A A39U G62U | < 1e-05 s⁻¹ | – | – | – | –
C8U U45C | < 1e-05 s⁻¹ | < 1e-05 s⁻¹ | < 1e-05 s⁻¹ | – | < 1e-05 s⁻¹
